Consider four molecules from patent publication US20150056222A1 (Regeneron, published 2015).

Like-named read-outs stand apart in the source and are kept apart here.

The target in assay [1] is T1, hPRLR.mmh (soluble monomeric human PRLR) (human).
T1 construct: soluble monomeric construct
T1 chain: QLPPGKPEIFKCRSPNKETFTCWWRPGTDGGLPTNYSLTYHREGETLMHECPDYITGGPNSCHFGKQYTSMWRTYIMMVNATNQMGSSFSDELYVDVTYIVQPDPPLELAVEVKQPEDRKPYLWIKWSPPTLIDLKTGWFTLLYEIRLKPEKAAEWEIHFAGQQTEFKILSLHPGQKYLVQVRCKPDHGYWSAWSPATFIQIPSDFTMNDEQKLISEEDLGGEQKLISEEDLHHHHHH
Put plainly: SPR, 37C, mAb capture. The protocol:
(§1) Measurements were conducted on a T200 Biacore instrument. Kinetic association (kₐ) and dissociation (kd) rate constants were determined by processing and fitting the data to a 1:1 binding model using Scrubber 2.0 curve fitting software. Binding dissociation equilibrium constants (KD) and dissociative half-lives (t_{1/2}) were calculated from the kinetic rate constants as: KD (M)=kd/kₐ; and […].
For orientation: In SPR one partner is held on a chip, and binding of the other changes the refractive index at the surface.

In assay [2] the target is T2, hPRLR.mFc (soluble dimeric human PRLR) (human).
T2 construct: dimeric construct
T2 chain: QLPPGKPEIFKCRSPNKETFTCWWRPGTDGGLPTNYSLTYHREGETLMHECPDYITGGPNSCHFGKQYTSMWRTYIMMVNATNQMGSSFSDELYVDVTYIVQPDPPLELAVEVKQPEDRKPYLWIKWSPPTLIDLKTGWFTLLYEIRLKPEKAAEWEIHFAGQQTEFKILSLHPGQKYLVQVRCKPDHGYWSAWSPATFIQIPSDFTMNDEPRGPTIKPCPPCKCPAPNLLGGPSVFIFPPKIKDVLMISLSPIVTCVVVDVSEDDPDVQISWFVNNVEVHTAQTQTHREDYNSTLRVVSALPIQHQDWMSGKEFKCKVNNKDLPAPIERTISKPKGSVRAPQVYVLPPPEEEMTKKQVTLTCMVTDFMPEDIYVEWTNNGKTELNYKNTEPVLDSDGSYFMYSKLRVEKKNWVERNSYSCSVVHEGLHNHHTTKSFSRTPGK
Briefly: SPR, 37C, mAb capture. The protocol:
as §1

The target in assay [3] is T3, mfPRLR.mmh (soluble monomeric macaca fascicularis PRLR) (macaca fascicularis).
T3 construct: soluble monomeric construct; also called macaca fascicularis (mf) PRLR.mmh
T3 chain: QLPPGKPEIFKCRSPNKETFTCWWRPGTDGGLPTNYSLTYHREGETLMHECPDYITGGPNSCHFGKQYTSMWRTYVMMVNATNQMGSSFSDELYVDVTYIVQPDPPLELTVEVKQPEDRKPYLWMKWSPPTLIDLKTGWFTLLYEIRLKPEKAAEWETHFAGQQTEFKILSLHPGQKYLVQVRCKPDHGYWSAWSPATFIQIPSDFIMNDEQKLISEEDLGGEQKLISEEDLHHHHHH
Put plainly: SPR, 37C, mAb capture. As for the experimental part:
as §1

The target of assay [4] is T4, human prolactin receptor (PRLR) on cells (human, UniProt P16471 25-622).
T4 sequence: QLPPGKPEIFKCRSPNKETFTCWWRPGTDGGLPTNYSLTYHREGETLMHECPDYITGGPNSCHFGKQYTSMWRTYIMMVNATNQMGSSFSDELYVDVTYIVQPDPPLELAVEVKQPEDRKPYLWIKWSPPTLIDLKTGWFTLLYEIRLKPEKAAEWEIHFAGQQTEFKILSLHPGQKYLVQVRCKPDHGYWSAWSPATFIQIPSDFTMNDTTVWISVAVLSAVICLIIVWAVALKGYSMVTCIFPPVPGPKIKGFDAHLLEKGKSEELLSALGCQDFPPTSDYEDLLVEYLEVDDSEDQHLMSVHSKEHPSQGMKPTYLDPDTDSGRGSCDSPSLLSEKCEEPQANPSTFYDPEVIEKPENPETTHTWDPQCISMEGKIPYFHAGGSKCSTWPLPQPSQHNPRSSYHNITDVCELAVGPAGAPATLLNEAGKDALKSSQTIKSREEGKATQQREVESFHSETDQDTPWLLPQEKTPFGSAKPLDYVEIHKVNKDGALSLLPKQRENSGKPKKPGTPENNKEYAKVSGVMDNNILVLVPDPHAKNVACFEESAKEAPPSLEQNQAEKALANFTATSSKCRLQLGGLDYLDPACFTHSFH
Put plainly: cell-based or functional assay.

The target in assay [5] is T4, human prolactin receptor (PRLR) on cells. Put plainly: FACS, HEK293/hPRLR cells. Further: test concentration or dose not given here.
Assay [6] has as its target T5, mouse PRLR on HEK293 cells (mouse, UniProt Q08501 20-608). Further: test concentration or dose not given here.
T5 construct: whole, on cells; also called mPRLR; HEK293/mPRLR
T5 sequence (looked up): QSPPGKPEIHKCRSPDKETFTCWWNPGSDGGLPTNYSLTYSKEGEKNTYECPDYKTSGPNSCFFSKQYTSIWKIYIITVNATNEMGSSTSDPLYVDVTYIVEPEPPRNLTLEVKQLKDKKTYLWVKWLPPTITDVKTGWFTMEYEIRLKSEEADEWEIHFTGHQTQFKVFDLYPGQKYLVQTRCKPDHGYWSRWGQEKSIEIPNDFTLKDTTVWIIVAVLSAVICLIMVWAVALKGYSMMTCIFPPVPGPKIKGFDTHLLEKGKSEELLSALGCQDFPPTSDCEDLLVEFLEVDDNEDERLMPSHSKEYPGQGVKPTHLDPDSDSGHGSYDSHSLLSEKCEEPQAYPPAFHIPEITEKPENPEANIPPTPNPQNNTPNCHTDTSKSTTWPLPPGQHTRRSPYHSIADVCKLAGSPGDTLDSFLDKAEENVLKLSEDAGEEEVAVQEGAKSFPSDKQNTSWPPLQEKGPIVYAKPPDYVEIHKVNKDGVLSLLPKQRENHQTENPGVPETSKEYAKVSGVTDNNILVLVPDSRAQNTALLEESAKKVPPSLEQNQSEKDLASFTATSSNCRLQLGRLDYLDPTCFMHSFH
Put plainly: FACS, HEK293/mPRLR cells. (In general: Flow cytometry measures light scatter and fluorescence of single cells or particles in a stream.)

Assay [7] has as its target T6, monkey (macaca fascicularis) PRLR on HEK293 cells (macaca fascicularis, UniProt A0A2K5WXK1 25-619).
T6 construct: also called mfPRLR; HEK293/mfPRLR
T6 sequence: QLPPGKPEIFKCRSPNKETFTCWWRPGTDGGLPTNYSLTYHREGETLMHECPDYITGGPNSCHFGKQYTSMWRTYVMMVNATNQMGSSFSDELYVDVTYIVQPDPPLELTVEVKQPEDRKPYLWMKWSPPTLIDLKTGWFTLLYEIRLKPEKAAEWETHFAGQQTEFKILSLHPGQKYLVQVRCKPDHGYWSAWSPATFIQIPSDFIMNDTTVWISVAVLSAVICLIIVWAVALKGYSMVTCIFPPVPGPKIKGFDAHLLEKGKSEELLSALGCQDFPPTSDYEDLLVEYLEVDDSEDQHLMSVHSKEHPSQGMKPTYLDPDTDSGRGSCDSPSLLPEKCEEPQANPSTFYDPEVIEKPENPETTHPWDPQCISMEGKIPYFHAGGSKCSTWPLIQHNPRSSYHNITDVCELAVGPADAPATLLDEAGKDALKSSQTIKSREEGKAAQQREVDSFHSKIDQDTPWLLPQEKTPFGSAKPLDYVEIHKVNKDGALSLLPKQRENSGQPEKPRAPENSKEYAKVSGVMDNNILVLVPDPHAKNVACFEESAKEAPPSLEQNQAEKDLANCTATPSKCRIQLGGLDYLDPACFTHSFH
Briefly: FACS, HEK293/mfPRLR cells. Further: test concentration or dose not given here.

Assay [8] addresses T4, human prolactin receptor (PRLR) on cells. Briefly: FACS, T47D cells (native PRLR). Further: test concentration or dose not given here.
The target in assay [9] is T7, human prolactin receptor (PRLR), cell surface-expressed (human, UniProt P16471 25-622).
T7 sequence: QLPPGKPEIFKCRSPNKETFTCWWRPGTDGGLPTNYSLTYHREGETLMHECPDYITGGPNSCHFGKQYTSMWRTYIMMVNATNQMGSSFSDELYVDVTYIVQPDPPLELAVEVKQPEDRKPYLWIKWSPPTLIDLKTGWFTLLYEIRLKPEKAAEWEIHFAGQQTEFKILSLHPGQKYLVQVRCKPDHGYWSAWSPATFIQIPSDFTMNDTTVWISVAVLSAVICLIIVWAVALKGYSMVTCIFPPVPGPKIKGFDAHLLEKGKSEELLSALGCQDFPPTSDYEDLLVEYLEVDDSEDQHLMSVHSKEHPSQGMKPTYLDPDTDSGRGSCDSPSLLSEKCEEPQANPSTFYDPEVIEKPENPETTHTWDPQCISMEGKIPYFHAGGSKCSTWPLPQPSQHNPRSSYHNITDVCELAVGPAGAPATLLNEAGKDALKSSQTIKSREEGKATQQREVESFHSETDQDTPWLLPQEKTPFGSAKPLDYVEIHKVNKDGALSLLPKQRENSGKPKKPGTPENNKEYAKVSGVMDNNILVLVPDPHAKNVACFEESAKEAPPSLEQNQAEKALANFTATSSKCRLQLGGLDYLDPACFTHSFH
Briefly: cell-based or functional assay.

Assay [10] deals with T7, human prolactin receptor (PRLR), cell …. Put plainly: cell-based or functional assay. The source holds these as a separate data set.
Assay [11] shares this target. Briefly: cell-based or functional assay. This is another data set of the same source.
The target is the same in assay [12]. Put plainly: cell-based or functional assay. This is another data set of the same source.
Assay [13] shares this target. Put plainly: cell-based or functional assay. This is another data set of the same source.

B1: H1H6960N (antibody, human IgG1, V domains shown)
VH: EVQLVESGGGLVKPGGSLRLSCAASGITFSSYSMNWVRQAPGKGLEWVSSISTRSSLIHYADSVKGRFTISRDNAKNSLYLQMNSLRDEDTAVYYCARWDAAAAFDYWGQGTLVIVSS
VL: DIQLTQSPSFLSASVGDRVTITCWASQGISSYLAWYQQKPGKAPKLLIYVASTLQSGVPSRFSGSGSGTEFTLTISSLQPEDFATYFCQQLNSYPLTFGGGTKVEIK
notes: also called H2M6960N
Take B1: the values for the T½ in assay [1], in assay [2] and in assay [3] were 5.8 min, 78.7 min and 9 min, respectively. In addition, in assay [4], the “% Internalization relative to Control I (alexa488 intensity in intracellular vesicles at 37 C, T47D cells)” value was 120%. Also, the “FACS Cell Binding (Fold Above Background)” value in assay [5] is 29 fold above background; in assay [6], 1 fold above background; in assay [7], 23 fold above background; in assay [8], 33 fold above background.

B2: H1H6966N (antibody, human IgG1, V domains shown)
VH: QVQLVQSGAEVQKPGASVKVSCKVSGYTLTALSIHWVRQAPGKGLEWMGNFDPGDGETIHAQKFQGRVTMTGDTSTDTAYMELSSLRSEDTAVYYCVGVTFDYWGQGTLVTVSS
VL: EIVMTQSPATLSVSPGERATLSCRASQSVASNLAWYQQKPGQAPRLLLYGASTRATGIPARFSGSGSGTEFTLTISSLQSEDFALYYCQHYNNWPLTFGGGTKVEIK
notes: also called H2M6966N
For B2, the T½ turned out to be 12 min in [1], 91.3 min in assay [2] and 9.6 min in assay [3]. In assay [4], the “% Internalization relative to Control I (alexa488 intensity in intracellular vesicles at 37 C, T47D cells)” value worked out at 137%. The “FACS Cell Binding (Fold Above Background)” value in assay [5] turned out to be 29 fold above background; in [6], 1 fold above background; in assay [7], 18 fold above background; in [8] it was 31 fold above background.

B3: H1H6782P-SMCC-DM1 (antibody, human IgG1, V domains shown)
VH: EVQLVESGGGLVQPGRSLRLSCAASGFTFDDYAMHWVRQAPGKGLEWVSGIIWNSGHIGYGDSVKGRFTISRDNAKKSLYLQMNSLRAEDTALYYCARDSGRYQSYFDYWGQGTLVTVSS
VL: DIQMTQSPSTLSASVGDRVTITCRASHIISSWLAWYQQKPGKAPKVLIFKASSLESGVPSRFSGSGSGTEFTLTISSLQPDDFATYYCQQYNTYSRTFGQGTKVEIK
modifications: DM1 conjugated through an SMCC linker; attachment residues not stated
Take B3: the “IC50, cell viability, T47D cells” value in [9] came out at 1 nM.

B4: H1H6953N-SMCC-DM1 (antibody, human IgG1, V domains shown)
VH: EVQLLESGGGLVQPGGTLRLSCAASGFTFSAYAMSWVRQAPGKGLEWVSSINVRAGDTYYADSVKGRFTISRDNSKNTLFLLMNSLRAEDTAAYYCAKARYSSNWGFDFWGQGTLVTVSS
VL: DIVMTQSPDSLTVSLGARTTINCQSSQTILHSSNNHNYLAWYQQKPGLPPKLLIYWSSTRESGVPDRFSGSGSGTDFTLTISSLQAEDVAIYYCQQYSNTPYTFGQGTKLEIN
modifications: DM1 conjugated through an SMCC linker; attachment residues not stated
As to B4, in assay [10], the “IC50, cell viability, 293/PRLR cells” value amounted to 0.43 nM. Also, the “IC50, cell viability, PC3/PRLR cells” value in assay [11] was 0.68 nM. Moreover, in assay [12], the “IC50, cell viability, MCF7 cells” value was 82 nM; the “IC50, cell viability, T47D cells” value was 1.3 nM; the “IC50, cell viability, T47D/ErbB2 cells” value stood at 2.4 nM. For the same molecule, in assay [13], the “IC50, cell viability, MCF7/PRLR cells” value is 0.33 nM; the “IC50, cell viability, MCF/PRLR + ErbB2 cells” value came out at 0.33 nM; the “IC50, cell viability, NCI-N87/PRLR cells” value is 2.9 nM.
